In publication PMC6160236, “Disrupted structure and aberrant function of CHIP mediates the loss of motor and cognitive function in preclinical models of SCAR16” (PLoS Genetics, 2018):

Legend:
[1] = biological target: T1, CHIP (carboxyl terminus of heat shock 70-interacting protein), recombinant His-tagged wild type (human), Q9UNE7; assay: SEC-MALS; GE Superdex 200 column with Wyatt DAWN HELEOS-II and T-Rex refractometer; 100 μl of 0.5 mg/ml of each sample loaded; oligomeric species of each CHIP protein; settings: remark: other sources report otherwise
T1 chain: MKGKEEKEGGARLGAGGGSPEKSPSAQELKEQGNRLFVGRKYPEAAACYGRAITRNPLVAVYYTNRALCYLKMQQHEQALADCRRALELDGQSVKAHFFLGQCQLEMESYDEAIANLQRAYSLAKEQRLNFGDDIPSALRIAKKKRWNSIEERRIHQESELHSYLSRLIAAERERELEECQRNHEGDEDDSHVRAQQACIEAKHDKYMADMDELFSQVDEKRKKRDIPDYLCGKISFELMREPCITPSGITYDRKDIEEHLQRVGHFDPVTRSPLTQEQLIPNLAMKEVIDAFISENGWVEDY

[2] = biological target: the molecule itself; assay: as above
[3] = biological target: T2, myc-CHIP wild type (pcDNA3-mycCHIP) (human), Q9UNE7; assay: native gel or EMSA; blue native PAGE (4-16% NativePAGE) of fresh lysates of transfected COS-7 cells, immunoblot with anti-myc; settings: remark: other sources report otherwise
T2 chain: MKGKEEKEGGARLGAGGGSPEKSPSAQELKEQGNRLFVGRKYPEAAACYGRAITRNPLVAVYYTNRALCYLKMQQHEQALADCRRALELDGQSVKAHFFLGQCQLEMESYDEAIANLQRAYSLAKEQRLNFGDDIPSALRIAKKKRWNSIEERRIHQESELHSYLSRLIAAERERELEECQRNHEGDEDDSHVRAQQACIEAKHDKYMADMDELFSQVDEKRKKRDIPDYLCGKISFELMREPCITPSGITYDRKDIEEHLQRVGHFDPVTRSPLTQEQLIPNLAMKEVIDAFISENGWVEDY

[4] = biological target: T3, myc-CHIP-K30A (pcDNA3-mycCHIP-K30A) (human), Q9UNE7; assay: as above; settings: remark: other sources report otherwise
T3 chain: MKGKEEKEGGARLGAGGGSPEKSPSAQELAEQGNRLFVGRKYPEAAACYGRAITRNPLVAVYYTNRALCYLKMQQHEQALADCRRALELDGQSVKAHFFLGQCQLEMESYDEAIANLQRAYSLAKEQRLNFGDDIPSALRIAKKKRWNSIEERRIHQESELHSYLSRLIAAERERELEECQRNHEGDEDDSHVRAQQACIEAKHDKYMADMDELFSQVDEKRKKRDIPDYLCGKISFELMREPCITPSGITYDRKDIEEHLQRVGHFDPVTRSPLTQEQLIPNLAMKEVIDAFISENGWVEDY

[5] = biological target: T4, CHIP-K30A, recombinant His-tagged (human), Q9UNE7; assay: SEC-MALS; GE Superdex 200 column with Wyatt DAWN HELEOS-II and T-Rex refractometer; 100 μl of 0.5 mg/ml of each sample loaded; oligomeric species of each CHIP protein; settings: remark: other sources report otherwise
T4 chain: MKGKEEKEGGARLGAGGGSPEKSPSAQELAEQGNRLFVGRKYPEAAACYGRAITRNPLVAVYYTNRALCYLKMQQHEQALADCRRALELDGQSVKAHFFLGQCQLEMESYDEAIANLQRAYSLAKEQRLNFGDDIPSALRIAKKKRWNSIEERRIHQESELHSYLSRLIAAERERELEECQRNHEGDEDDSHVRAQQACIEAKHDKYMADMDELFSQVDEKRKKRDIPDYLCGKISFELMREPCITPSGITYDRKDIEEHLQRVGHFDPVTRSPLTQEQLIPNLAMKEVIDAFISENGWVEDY

B1: CHIP (carboxyl terminus of heat shock 70-interacting protein), recombinant His-tagged wild type, Q9UNE7 1-303 (enzyme)
chain: MKGKEEKEGGARLGAGGGSPEKSPSAQELKEQGNRLFVGRKYPEAAACYGRAITRNPLVAVYYTNRALCYLKMQQHEQALADCRRALELDGQSVKAHFFLGQCQLEMESYDEAIANLQRAYSLAKEQRLNFGDDIPSALRIAKKKRWNSIEERRIHQESELHSYLSRLIAAERERELEECQRNHEGDEDDSHVRAQQACIEAKHDKYMADMDELFSQVDEKRKKRDIPDYLCGKISFELMREPCITPSGITYDRKDIEEHLQRVGHFDPVTRSPLTQEQLIPNLAMKEVIDAFISENGWVEDY
percent of the protein as 2mer [1]: 69.7% | percent of the protein as 4mer [1]: 25.2% | percent of the protein as 6mer [1]: 4.8% | stoichiometry N [1]: 2

B2: CHIP-T246M, recombinant His-tagged (enzyme, human, UniProt Q9UNE7 1-303, looked up)
chain: MKGKEEKEGGARLGAGGGSPEKSPSAQELKEQGNRLFVGRKYPEAAACYGRAITRNPLVAVYYTNRALCYLKMQQHEQALADCRRALELDGQSVKAHFFLGQCQLEMESYDEAIANLQRAYSLAKEQRLNFGDDIPSALRIAKKKRWNSIEERRIHQESELHSYLSRLIAAERERELEECQRNHEGDEDDSHVRAQQACIEAKHDKYMADMDELFSQVDEKRKKRDIPDYLCGKISFELMREPCIMPSGITYDRKDIEEHLQRVGHFDPVTRSPLTQEQLIPNLAMKEVIDAFISENGWVEDY
notes: CHIP (gene STUB1), full-length protein with the SCAR16 patient mutation p.T246M in the U-box; T246M is a mutation found in SCAR16 patients; source: Escherichia coli BL21(DE3), purified (HisTrap HP)
stoichiometry N [2]: 10 to 12

B3: myc-CHIP wild type (pcDNA3-mycCHIP), Q9UNE7 1-303 (enzyme)
chain: MKGKEEKEGGARLGAGGGSPEKSPSAQELKEQGNRLFVGRKYPEAAACYGRAITRNPLVAVYYTNRALCYLKMQQHEQALADCRRALELDGQSVKAHFFLGQCQLEMESYDEAIANLQRAYSLAKEQRLNFGDDIPSALRIAKKKRWNSIEERRIHQESELHSYLSRLIAAERERELEECQRNHEGDEDDSHVRAQQACIEAKHDKYMADMDELFSQVDEKRKKRDIPDYLCGKISFELMREPCITPSGITYDRKDIEEHLQRVGHFDPVTRSPLTQEQLIPNLAMKEVIDAFISENGWVEDY
stoichiometry N [3]: 2

B4: myc-CHIP-K30A (pcDNA3-mycCHIP-K30A), Q9UNE7 1-303 (enzyme)
chain: MKGKEEKEGGARLGAGGGSPEKSPSAQELAEQGNRLFVGRKYPEAAACYGRAITRNPLVAVYYTNRALCYLKMQQHEQALADCRRALELDGQSVKAHFFLGQCQLEMESYDEAIANLQRAYSLAKEQRLNFGDDIPSALRIAKKKRWNSIEERRIHQESELHSYLSRLIAAERERELEECQRNHEGDEDDSHVRAQQACIEAKHDKYMADMDELFSQVDEKRKKRDIPDYLCGKISFELMREPCITPSGITYDRKDIEEHLQRVGHFDPVTRSPLTQEQLIPNLAMKEVIDAFISENGWVEDY
stoichiometry N [4]: 2

B5: CHIP-K30A, recombinant His-tagged, Q9UNE7 1-303 (enzyme)
chain: MKGKEEKEGGARLGAGGGSPEKSPSAQELAEQGNRLFVGRKYPEAAACYGRAITRNPLVAVYYTNRALCYLKMQQHEQALADCRRALELDGQSVKAHFFLGQCQLEMESYDEAIANLQRAYSLAKEQRLNFGDDIPSALRIAKKKRWNSIEERRIHQESELHSYLSRLIAAERERELEECQRNHEGDEDDSHVRAQQACIEAKHDKYMADMDELFSQVDEKRKKRDIPDYLCGKISFELMREPCITPSGITYDRKDIEEHLQRVGHFDPVTRSPLTQEQLIPNLAMKEVIDAFISENGWVEDY
percent of the protein as 2mer [5]: 80.4% | percent of the protein as 4mer [5]: 16.4% | percent of the protein as 6mer [5]: 2.6% | stoichiometry N [5]: 2
